{
  "source": "patent US20260176653",
  "target": "T1, Bcl-TEV IRES iADAR (tandem-dimer MCP, BAD peptide fused to the N-terminus of ADAR2-DD(E488Q & F697Y), TEV cut site, Bcl-xL, TagBFP)",
  "T1 chain": "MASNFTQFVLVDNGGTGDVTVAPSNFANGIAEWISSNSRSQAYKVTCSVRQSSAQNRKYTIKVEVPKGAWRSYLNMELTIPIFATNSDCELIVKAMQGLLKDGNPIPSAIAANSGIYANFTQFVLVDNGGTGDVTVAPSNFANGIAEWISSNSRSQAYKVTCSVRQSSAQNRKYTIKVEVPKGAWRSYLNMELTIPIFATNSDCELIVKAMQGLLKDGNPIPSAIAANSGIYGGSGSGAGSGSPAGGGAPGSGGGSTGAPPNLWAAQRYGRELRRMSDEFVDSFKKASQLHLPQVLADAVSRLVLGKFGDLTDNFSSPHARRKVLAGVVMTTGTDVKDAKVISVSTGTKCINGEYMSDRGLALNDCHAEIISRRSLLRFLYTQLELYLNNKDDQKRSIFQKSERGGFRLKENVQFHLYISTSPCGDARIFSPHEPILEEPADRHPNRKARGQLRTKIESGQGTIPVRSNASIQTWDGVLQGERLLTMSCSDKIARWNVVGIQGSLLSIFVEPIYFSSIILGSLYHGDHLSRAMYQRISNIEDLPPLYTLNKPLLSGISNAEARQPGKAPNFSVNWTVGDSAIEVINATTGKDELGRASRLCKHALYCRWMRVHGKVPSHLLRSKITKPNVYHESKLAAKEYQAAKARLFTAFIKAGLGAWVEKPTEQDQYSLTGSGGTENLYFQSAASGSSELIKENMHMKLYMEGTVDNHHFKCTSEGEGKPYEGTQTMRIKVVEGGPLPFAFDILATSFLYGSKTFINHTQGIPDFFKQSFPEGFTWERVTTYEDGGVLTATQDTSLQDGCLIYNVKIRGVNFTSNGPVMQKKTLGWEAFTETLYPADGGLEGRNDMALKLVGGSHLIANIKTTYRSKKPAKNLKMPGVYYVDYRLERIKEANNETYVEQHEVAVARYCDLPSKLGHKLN",
  "data": [
    {"protein": "TEV Protease (protein) MGESLFKGPRDYNPISSTICHLTNESDGHTTSLYGIGFGPFIITNKHLFRRNNGTLLVQSLHGVFKVKNTTTLQQHLIDGRDMIIIRMPKDFPPFPQKLKFREPQREERICLVTTNFQTKSMSSMVSDTSCTFPSSDGIFWKHWIQTKDGQCGSPLVSTRDGFIVGIHSASNFTNTNNYFTSVPKNFMELLTNQEAQQWVSGWRLNADSVLWGGHKVFMVKPEEPFQPVKEATQL", "values": [
      {"measurement": "fold change of the mean RFU (mNeonGreen-to-mCherry), Bcl-TEV IRES iADAR co-transfected with TEV protease", "value": 17, "unit": "× for TEV protease"}
    ]}
  ]
}
